Results published in paper doi:10.1101/2024.10.02.616342.

Molecular target: mNG-BCR-ABL (biotinylated Avitag-linker-mNeon Green-linker-p210 BCR-ABL, full length) (human) (UniProt P00519)
Experiment: single-molecule TIRF pull-down

mNG-BCR-ABL (biotinylated Avitag-linker-mNeon Green-linker-p210 BCR-ABL, full length) (from UniProt P00519-1 28-1130)
percent dimeric: 55% | percent monomeric: 40% | percent tetramer: 5% | stoichiometry N: 2
